The supplement of paper PMC12458215
± gives the uncertainty stated by the source.

Tested on: HEK293T
Assay: plasma membrane surface immunostaining intensity (anti-HA, deep receptor scanning) (arbitrary fluorescence units); higher = higher plasma membrane expression

Sequence | plasma membrane surface immunostaining intensity (GPCR class: A) | plasma membrane surface immunostaining intensity (GPCR class: A (Olfactory)) | also measured
MASPRSSGQPGPPPPPPPPPARLLLLLLLPLLLPLAPGAWGWARGAPRPPPSSPPLSIMGLMPLTKEVAKGSIGRGVLPAVELAIEQIRNESLLRPYFLDLRLYDTECDNAKGLKAFYDAIKYGPNHLMVFGGVCPSVTSIIAESLQGWNLVQLSFAATTPVLADKKKYPYFFRTVPSDNAVNPAILKLLKHYQWKRVGTLTQDVQRFSEVRNDLTGVLYGEDIEISDTESFSNDPCTSVKKLKGNDVRIILGQFDQNMAAKVFCCAYEENMYGSKYQWIIPGWYEPSWWEQVHTEANSSRCLRKNLLAAMEGYIGVDFEPLSSKQIKTISGKTPQQYEREYNNKRSGVGPSKFHGYAYDGIWVIAKTLQRAMETLHASSRHQRIQDFNYTDHTLGRIILNAMNETNFFGVTGQVVFRNGERMGTIKFTQFQDSREVKVGEYNAVADTLEIINDTIRFQGSEPPKDKTIILEQLRKISLPLYSILSALTILGMIMASAFLFFNIKNRNQKLIKMSSPYMNNLIILGGMLSYASIFLFGLDGSFVSEKTFETLCTVRTWILTVGYTTAFGAMFAKTWRVHAIFKNVKMKKKIIKDQKLLVIVGGMLLIDLCILICWQAVDPLRRTVEKYSMEPDPAGRDISIRPLLEHCENTHMTIWLGIVYAYKGLLMLFGCFLAWETRNVSIPALNDSKYIGMSVYNVGIMCIIGAAVSFLTRDQPNVQFCIVALVIIFCSTITLCLVFVPKLITLRTNPDAATQNRRFQFTQNQKKEDSKTSTSVTSVNQASTSRLEGLQSENHRLRMKITELDKDLEEVTMQLQDTPEKTTYIKQNHYQELNDILNLGNFTESTDGGKAILKNHLDQNPQLQWNTTEPSRTCKDPIEDINSPEHIQRRLSLQLPILHHAYLPSIGGVDASCVSPCVSPTASPRHRHVPPSFRVMVSGL [GABBR2] | – | – | plasma membrane surface immunostaining intensity (GPCR class: C): 6210 ± 48
MASPSLPGSDCSQIIDHSHVPEFEVATWIKITLILVYLIIFVMGLLGNSATIRVTQVLQKKGYLQKEVTDHMVSLACSDILVFLIGMPMEFYSIIWNPLTTSSYTLSCKLHTFLFEACSYATLLHVLTLSFERYIAICHPFRYKAVSGPCQVKLLIGFVWVTSALVALPLLFAMGTEYPLVNVPSHRGLTCNRSSTRHHEQPETSNMSICTNLSSRWTVFQSSIFGAFVVYLVVLLSVAFMCWNMMQVLMKSQKGSLAGGTRPPQLRKSESEESRTARRQTIIFLRLIVVTLAVCWMPNQIRRIMAAAKPKHDWTRSYFRAYMILLPFSETFFYLSSVINPLLYTVSSQQFRRVFVQVLCCRLSLQHANHEKRLRVHAHSTTDSARFVQRPLLFASRRQSSARRTEKIFLSTFQSEAEPQSKSQSLSLESLEPNSGAKPANSAAENGFQEHEV [GPR39] | 5870 ± 200 | – | –
MASPSNDSTAPVSEFLLICFPNFQSWQHWLSLPLSLLFLLAMGANTTLLITIQLEASLHQPLYYLLSLLSLLDIVLCLTVIPKVLAIFWFDLRSISFPACFLQMFIMNSFLTMESCTFMVMAYDRYVAICHPLRYPSIITDQFVARAVVFVIARNAFVSLPVPMLSARLRYCAGNIIKNCICSNLSVSKLSCDDITFNQLYQFVAGWTLLGSDLILIVISYSFILKVVLRIKAEGAVAKALSTCGSHFILILFFSTVLLVLVITNLARKRIPPDVPILLNILHHLIPPALNPIVYGVRTKEIKQGIQNLLKRL [OR56A4] | – | 419 ± 210 | –
MASSTTRGPRVSDLFSGLPPAVTTPANQSAEASAGNGSVAGADAPAVTPFQSLQLVHQLKGLIVLLYSVVVVVGLVGNCLLVLVIARVRRLHNVTNFLIGNLALSDVLMCTACVPLTLAYAFEPRGWVFGGGLCHLVFFLQPVTVYVSVFTLTTIAVDRYVVLVHPLRRRISLRLSAYAVLAIWALSAVLALPAAVHTYHVELKPHDVRLCEEFWGSQERQRQLYAWGLLLVTYLLPLLVILLSYVRVSVKLRNRVVPGCVTQSQADWDRARRRRTFCLLVVIVVVFAVCWLPLHVFNLLRDLDPHAIDPYAFGLVQLLCHWLAMSSACYNPFIYAWLHDSFREELRKLLVAWPRKIAPHGQNMTVSVVI [PRLHR] | 5220 ± 340 | – | –
MASSWPPLELQSSNQSQLFPQNATACDNAPEAWDLLHRVLPTFIISICFFGLLGNLFVLLVFLLPRRQLNVAEIYLANLAASDLVFVLGLPFWAENIWNQFNWPFGALLCRVINGVIKANLFISIFLVVAISQDRYRVLVHPMASRRQQRRRQARVTCVLIWVVGGLLSIPTFLLRSIQAVPDLNITACILLLPHEAWHFARIVELNILGFLLPLAAIVFFNYHILASLRTREEVSRTRCGGRKDSKTTALILTLVVAFLVCWAPYHFFAFLEFLFQVQAVRGCFWEDFIDLGLQLANFFAFTNSSLNPVIYVFVGRLFRTKVWELYKQCTPKSLAPISSSHRKEIFQLFWRN [BDKRB1] | 976 ± 180 | – | –
MASTSNVTELIFTGLFQDPAVQSVCFVVFLPVYLATVVGNGLIVLTVSISKSLDSPMYFFLSCLSLVEISYSSTIAPKFIIDLLAKIKTISLEGCLTQIFFFHFFGVAEILLIVVMAYDCYVAICKPLHYMNIISRQLCHLLVAGSWLGGFCHSIIQILVIIQLPFCGPNVIDHYFCDLQPLFKLACTDTFMEGVIVLANSGLFSVFSFLILVSSYIVILVNLRNHSAEGRHKALSTCASHITVVILFFGPAIFLYMRPSSTFTEDKLVAVFYTVITPMLNPIIYTLRNAEVKIAIRRLWSKKENPGRE [OR4B1] | – | 131 ± 38 | –
MATELDKIFLILAIAEFIISMLGNVFIGLVNCSEGIKNQKVFSADFILTCLAISTIGQLLVILFDSFLVGLASHLYTTYRLGKTVIMLWHMTNHLTTWLATCLSIFYFFKIAHFPHSLFLWLRWRMNGMIVMLLILSLFLLIFDSLVLEIFIDISLNIIDKSNLTLYLDESKTLYDKLSILKTLLSLTSFIPFSLFLTSLLFLFLSLVRHTRNLKLSSLGSRDSSTEAHRRAMKMVMSFLFLFIVHFFSLQVANWIFFMLWNNKCIKFVMLALNAFPSCHSFILILGNSKLQQTAVRLLWHLRNYTKTPNPLPL [TAS2R42] | – | – | plasma membrane surface immunostaining intensity (GPCR class: Taste): 114 ± 7.7
MATLPAAETWIDGGGGVGADAVNLTASLAAGAATGAVETGWLQLLDQAGNLSSSPSALGLPVASPAPSQPWANLTNQFVQPSWRIALWSLAYGVVVAVAVLGNLIVIWIILAHKRMRTVTNYFLVNLAFSDASMAAFNTLVNFIYALHSEWYFGANYCRFQNFFPITAVFASIYSMTAIAVDRYMAIIDPLKPRLSATATKIVIGSIWILAFLLAFPQCLYSKTKVMPGRTLCFVQWPEGPKQHFTYHIIVIILVYCFPLLIMGITYTIVGITLWGGEIPGDTCDKYHEQLKAKRKVVKMMIIVVMTFAICWLPYHIYFILTAIYQQLNRWKYIQQVYLASFWLAMSSTMYNPIIYCCLNKRFRAGFKRAFRWCPFIKVSSYDELELKTTRFHPNRQSSMYTVTRMESMTVVFDPNDADTTRSSRKKRATPRDPSFNGCSRRNSKSASATSSFISSPYTSVDEYS [TACR3] | 4780 ± 620 | – | –
MAVAPLRGALLLWQLLAAGGAALEIGRFDPERGRGAAPCQAVEIPMCRGIGYNLTRMPNLLGHTSQGEAAAELAEFAPLVQYGCHSHLRFFLCSLYAPMCTDQVSTPIPACRPMCEQARLRCAPIMEQFNFGWPDSLDCARLPTRNDPHALCMEAPENATAGPAEPHKGLGMLPVAPRPARPPGDLGPGAGGSGTCENPEKFQYVEKSRSCAPRCGPGVEVFWSRRDKDFALVWMAVWSALCFFSTAFTVLTFLLEPHRFQYPERPIIFLSMCYNVYSLAFLIRAVAGAQSVACDQEAGALYVIQEGLENTGCTLVFLLLYYFGMASSLWWVVLTLTWFLAAGKKWGHEAIEAHGSYFHMAAWGLPALKTIVILTLRKVAGDELTGLCYVASTDAAALTGFVLVPLSGYLVLGSSFLLTGFVALFHIRKIMKTGGTNTEKLEKLMVKIGVFSILYTVPATCVIVCYVYERLNMDFWRLRATEQPCAAAAGPGGRRDCSLPGGSVPTVAVFMLKIFMSLVVGITSGVWVWSSKTFQTWQSLCYRKIAAGRARAKACRAPGSYGRGTHCHYKAPTVVLHMTKTDPSLENPTHL [FZD9] | – | – | plasma membrane surface immunostaining intensity (GPCR class: F): 1560 ± 410
MAVGRNNTIVTKFILLGLSDHPQMKIFLFMLFLGLYLLTLAWNLSLIALIKMDSHLHMPMYFFLSNLSFLDICYVSSTAPKMLSDIITEQKTISFVGCATQYFVFCGMGLTECFLLAAMAYDRYAAICNPLLYTVLISHTLCLKMVVGAYVGGFLSSFIETYSVYQHDFCGPYMINHFFCDLPPVLALSCSDTFTSEVVTFIVSVVVGIVSVLVVLISYGYIVAAVVKISSATGRTKAFSTCASHLTAVTLFYGSGFFMYMRPSSSYSLNRDKVVSIFYALVIPVVNPIIYSFRNKEIKNAMRKAMERDPGISHGGPFIFMTLG [OR5A2] | – | 267 ± 110 | –
